Assay results from PMC6300978 (Chemico-biological interactions, 2015).

Assays:
[1] = probe reaction for UGT1A1; cited from earlier work
[2] = Chemical inhibition of GA glucuronidation; conditions: GA 2 µM, M2 formation
UGT1A8 = conditions: mycophenolic acid as substrate of UGT1A8; cited from earlier work
[3] = substrate: CC1(C)C=Cc2c(ccc3c2OC[C@@H](c2ccc(O)cc2O)C3)O1; assay: GA glucuronidation kinetics by recombinant UGT1A1; format: in vitro ADME, human; conditions: Michaelis–Menten, pH 7.4
[4] = substrate: CC1(C)C=Cc2c(ccc3c2OC[C@@H](c2ccc(O)cc2O)C3)O1; assay: GA glucuronidation kinetics by recombinant UGT1A10; format: in vitro ADME, human; conditions: other: UGT1A10, M2 formation, substrate inhibition model; pH 7.4
[5] = substrate: CC1(C)C=Cc2c(ccc3c2OC[C@@H](c2ccc(O)cc2O)C3)O1; assay: GA glucuronidation by recombinant UGT1A8; format: in vitro ADME, human; conditions: other: UGT1A8, M2 formation, substrate inhibition model; pH 7.4
[6] = substrate: CC1(C)C=Cc2c(ccc3c2OC[C@@H](c2ccc(O)cc2O)C3)O1; assay: GA glucuronidation kinetics by recombinant UGT1A3; format: in vitro ADME, human; conditions: other: UGT1A3, M2 formation, Michaelis–Menten; pH 7.4

Q: Which “rate of 3-O-glucuronidation by DLM relative to HLM” value [1] does the source give for C#C[C@]1(O)CC[C@H]2[C@@H]3CCc4cc(O)ccc4[C@H]3CC[C@@]21C [ethylestradiol] here?
A: Its value is 10 fold.

Q: With OC(Cn1cncn1)(Cn1cncn1)c1ccc(F)cc1F [fluconazole] as the molecule, how does the “remaining GA glucuronidation activity in HIM” value ([2]; inhibitor 1 mM (Fig. 6)) read?
A: Its value is “above 85 % of the control”.

Q: With C=CCc1ccc(O)c(-c2cc(CC=C)ccc2O)c1 [magnolol] as the molecule, how does the “remaining GA glucuronidation activity in HIM” value ([2]; inhibitor 1 µM) read?
A: The value was “above 85 % of the control”.

Q: For COc1c(C)c2c(c(O)c1C/C=C(\C)CCC(=O)O)C(=O)OC2 [mycophenolic acid], which Km (UGT1A8) is on record?
A: Its Km is 1.39 µM.

Q: What about the “remaining GA glucuronidation activity in HIM” value ([2]; inhibitor 10 µM) of the same molecule?
A: Its value is 28 % of the control.

Q: With Cc1cn(-c2cc(NC(=O)c3ccc(C)c(Nc4nccc(-c5cccnc5)n4)c3)cc(C(F)(F)F)c2)cn1 [nilotinib] as the molecule, how does the “remaining GA glucuronidation activity in HIM” value ([2]; inhibitor 1 µM) read?
A: Its value is “above 85 % of the control”.

B1: recombinant human UGT1A1 (Homo sapiens) (protein)
chain: HAGKILLIPVDGSHWLSMLGAIQQLQQRGHEIVVLAPDASLYIRDGAFYTLKTYPVPFQREDVKESFVSLGHNVFENDSFLQRVIKTYKKIKKDSAMLLSGCSHLLHNKELMASLAESSFDVMLTDPFLPCSPIVAQYLSLPTVFFLHALPCSLEFEATQCPNPFSYVPRPLSSHSDHMTFLQRVKNMLIAFSQNFLCDVVYSPYATLASEFLQREVTVQDLLSSASVWLFRSDFVKDYPRPIMPNMVFVGGINCLHQNPLSQEFEAYINASGEHGIVVFSLGSMVSEIPEKKAMAIADALGKIPQTVLWRYTGTRPSNLANNTILVKWLPQNDLLGHPMTRAFITHAGSHGVYESICNGVPMVMMPLFGDQMDNAKRMETKGAGVTLNVLEMTSEDLENALKAVINDKSYKENIMRLSSLHKDRPVEPLDLAVFWVEFVMRHKGAPHLRPAAHDLTWYQYHSLDVIGFLLAVVLTVAFITFKCCAYGYRKCLGKKGRVKKAHKSKTH
Q: What does the source list for B1?
A: Km ([3]; other: UGT1A1, M1 formation): 7.6 ± 1.8 µM; Vmax ([3]; other: UGT1A1, M1 formation): 0.17 ± 0.01 nmol/min/mg; Km ([3]; other: UGT1A1, M2 formation): 24 ± 14 µM; Vmax ([3]; other: UGT1A1, M2 formation): 0.11 ± 0.03 nmol/min/mg

B2: recombinant human UGT1A10 (Homo sapiens) (protein)
chain: GKLLVVPMDGSHWFTMQSVVEKLILRGHEVVVVMPEVSWQLERSLNCTVKTYSTSYTLEDQNREFMVFAHAQWKAQAQSIFSLLMSSSSGFLDLFFSHCRSLFNDRKLVEYLKESSFDAVFLDPFDTCGLIVAKYFSLPSVVFTRGIFCHHLEEGAQCPAPLSYVPNDLLGFSDAMTFKERVWNHIVHLEDHLFCQYLFRNALEIASEILQTPVTAYDLYSHTSIWLLRTDFVLDYPKPVMPNMIFIGGINCHQGKPLPMEFEAYINASGEHGIVVFSLGSMVSEIPEKKAMAIADALGKIPQTVLWRYTGTRPSNLANNTILVKWLPQNDLLGHPMTRAFITHAGSHGVYESICNGVPMVMMPLFGDQMDNAKRMETKGAGVTLNVLEMTSEDLENALKAVINDKSYKENIMRLSSLHKDRPVEPLDLAVFWVEFVMRHKGAPHLRPAAHDLTWYQYHSLDVIGFLLAVVLTVAFITFKCCAYGYRKCLGKKGRVKKAHKSKTH
Q: Which Km [4] does the source give for B2 here?
A: Its Km is 28 ± 8 µM.

Q: And the Vmax [4]?
A: Its Vmax is 0.5 ± 0.1 nmol/min/mg.

B3: recombinant human UGT1A8 (Homo sapiens) (protein)
chain: GKLLVVPMDGSHWFTMQSVVEKLILRGHEVVVVMPEVSWQLGKSLNCTVKTYSTSYTLEDLDREFMDFADAQWKAQVRSLFSLFLSSSNGFFNLFFSHCRSLFNDRKLVEYLKESSFDAVFLDPFDACGLIVAKYFSLPSVVFARGIACHYLEEGAQCPAPLSYVPRILLGFSDAMTFKERVRNHIMHLEEHLFCQYFSKNALEIASEILQTPVTAYDLYSHTSIWLLRTDFVLDYPKPVMPNMIFIGGINCHQGKPLPMEFEAYINASGEHGIVVFSLGSMVSEIPEKKAMAIADALGKIPQTVLWRYTGTRPSNLANNTILVKWLPQNDLLGHPMTRAFITHAGSHGVYESICNGVPMVMMPLFGDQMDNAKRMETKGAGVTLNVLEMTSEDLENALKAVINDKSYKENIMRLSSLHKDRPVEPLDLAVFWVEFVMRHKGAPHLRPAAHDLTWYQYHSLDVIGFLLAVVLTVAFITFKCCAYGYRKCLGKKGRVKKAHKSKTH
Q: With B3 as the molecule, how does the Km [5] read?
A: Its Km is 64 ± 9 µM.

Q: And the Vmax [5]?
A: The Vmax was 11 ± 3 nmol/min/mg.

B4: recombinant human UGT1A3 (Homo sapiens) (protein)
chain: GKVLVVPIDGSHWLSMREVLRELHARGHQAVVLTPEVNMHIKEENFFTLTTYAISWTQDEFDRHVLGHTQLYFETEHFLKKFFRSMAMLNNMSLVYHRSCVELLHNEALIRHLNATSFDVVLTDPVNLCAAVLAKYLSIPTVFFLRNIPCDLDFKGTQCPNPSSYIPRLLTTNSDHMTFMQRVKNMLYPLALSYICHAFSAPYASLASELFQREVSVVDILSHASVWLFRGDFVMDYPRPIMPNMVFIGGINCANRKPLSQEFEAYINASGEHGIVVFSLGSMVSEIPEKKAMAIADALGKIPQTVLWRYTGTRPSNLANNTILVKWLPQNDLLGHPMTRAFITHAGSHGVYESICNGVPMVMMPLFGDQMDNAKRMETKGAGVTLNVLEMTSEDLENALKAVINDKSYKENIMRLSSLHKDRPVEPLDLAVFWVEFVMRHKGAPHLRPAAHDLTWYQYHSLDVIGFLLAVVLTVAFITFKCCAYGYRKCLGKKGRVKKAHKSKTH
Q: With B4 as the molecule, how does the Km [6] read?
A: Its Km is 11 ± 4 µM.

Q: What about the Vmax [6] of the same molecule?
A: The Vmax was 0.32 ± 0.06 nmol/min/mg.
